Among the data in publication PMC4119789 are fold weaker affinity than for the H3K9me2 peptide values, retold here.

For this experiment, the target named is H3K4AK9me2 peptide. Description: ITC.

B1: SAWADEE domain of atSHH1 (residues 125-258) (domain or fragment)
chain: ADLAFEAKSARDYAWYDVSSFLTYRVLRTGELEVRVRFSGFDNRHDEWVNVKTSVRERSIPVEPSECGRVNVGDLLLCFQEREDQALYCDGHVLNIKRGIHDHARCNCVFLVRYELDNTEESLGLERICRRPEE
The molecule B1 showed a fold weaker affinity than for the H3K9me2 peptide of 30 fold.
